Measured values reported in the DeepSol protein solubility set.

experiment: soluble on expression in E. coli; label from the status in PepcDB or PDB records

Sequence | soluble on expression in E. coli
MGHHHHHHGGHMSLDYQKEYERKLISPEEAANLVKDGMHIEIGGSANTALIIDKYLAKRKDELSHVEVGTFIDIAHYEFLKADPEQEKIKWESCFLYEPVRKCSKELGPCVHRPGVLSDAGYIAKELGGVLKGGKKYTDIAFLVTTPMDRHGFFNFGVTCTFLKSIAEGAEKVVVVVKKDMPWVNGGYDECIHISEVDYIVEDNEFPTPFLPFLPPPSKEDEMIAENIMEAGLIENGSTLQVGIGGLPNTVVRMLKEAGLKDLGIHTEMMGDGLMELMEEGIVTNQNKKLDRGKAVFSFALGTRKLYDFLDRNPEVATYPVEYTNNPFVVAQQPKMFSLNQVAQIDLMGQINSGQIGLTSPSGKIFQISGTGGQLDFVLGCFYSFDRQGKSVLATYSTYNGTSRIIPALPTGAGVTVPRSVVQYVATEWGIAYLRGLPIYKRAAAMIQLAHPDHRDWLEEEARKLGILPPKYSIPAGKADGVIYRRDEGGS | soluble
MNISIRAETPGDIDAIAHLTEAAFRNETHSSHTEQYIVDALRRAGALTLSLVAEANGQVIGHIAASPVTIDGEAGDWYGLAPLSVAPGRQRQGLGSQLVRRLLTELRLLPAGGCVVLGEPTYYSRFGFRVESGLALPGVPAEYFQAQSFSGRMAQGIVAFHAAFDASG | not soluble
HLYPGEVCPGMDIRNNLTRLHELENCSVIEGHLQILLMFKTRPEDFRDLSFPKLIMITDYLLLFRVYGLESLKDLFPNLTVIRGSRLFFNYALVIFEMVHLKELGLYNLMNITRGSVRIEKNNELCYLATIDWSRILDSVEDNHIVLNKDDNEECGDICPGTAKGKTNCPATVINGQFVERCWTHSHCQKVCPTICKSHGCTAEGLCCHSECLGNCSQPDDPTKCVACRNFYLDGRCVETCPPPYYHFQDWRCVNFSFCQDLHHKCKNSRRQGCHQYVIHNNKCIPECPSGYTMNSSNLLCTPCLGPCPKVCHLLEGEKTIDSVTSAQELRGCTVINGSLIINIRGGNNLAAELEANLGLIEEISGYLKIRRSYALVSLSFFRKLRLIRGETLEIGNYSFYALDNQNLRQLWDWSKHNLTITQGKLFFHYNPKLCLSEIHKMEEVSGTKGRQERNDIALKTNGDQASCENELLKFSYIRTSFDKILLRWEPYWPPDFRDLLGFMLFYKEAPYQNVTEFDGQDACGSNSWTVVDIDPPLRSNDPKSQNHPGWLMRGLKPWTQYAIFVKTLVTFSDERRTYGAKSDIIYVQTDATNPSVPLDPISVSNSSSQIILKWKPPSDPNGNITHYLVFWERQAEDSELFELDYCLKGLKLPSRTWSPPFESEDSQKHNQSEYEDSAGECCSCPKTDSQILKELEESSFRKTFEDYLHNVVFVPRPSRKRRSLGDVGNHGNNVPTVAAFPNTSSTSVPTSPEEHRPFEKVVNKESLVISGLRHFTGYRIELQACNQDTPEERCSVAAYVSARTMPEAKADDIVGPVTHEIFENNVVHLMWQEPKEPNGLIVLYEVSYRRYGDEELHLCDTRKHFALERGCRLRGLSPGNYSVRIRATSLAGNGSWTEPTYFYVTDYLDVPSNIAK | soluble
MGQKMKNAPVYFTIAQVRHNPVLRLGSYAPDIQDRMRKAGYPDFKKGIAMAFTLAPQLGDAPQTQPPVVEQVERLMFFSTDSTRGFIVEQNALSFHTTEYETFEALADEFMRGLAIVHECVTLAHSERIGLRYLDAVVPPGGETGLAEYLAPGVLGLSSRLPEDVTVSHSFSETHIQTAKCAVLARTIIQSGPLGFPMDLQPIGVKVADRFREINGVHAIVDTDASIEGRHPFNLELIKSQLQVLRDGVGIAFDATVTPIAVSAWNS | not soluble
MSLNKPVLPKPAPSISSLSLKLPKADRSIETYRLAASRTFPARLEGPLNRIAFSAVHTVADPFADNDPWLSVAVDWDKTIAFREHVWDLGLGVAEAMDTAQRGMGLDWPTSLELITRSVAAAKRRNALVFSGAGTDHLAVEDARTVDDVIRAYEEQISAVEKVGGRIILMASRALAKLGRNADDYAKVYDRVLSQVREPVIIHWLGDMFDPALTGYWGTKDLDKAMDVAVAVINANAAKVDGVKVSLLDKQREIDMRRRLDKRIRMYTGDDFNYAELIAGDSQGFSHALLGIFDAIAPAASYALSRLAAGDEAGFHDVLGPTVPLSRHIFKAPTRFYKTGVVFMAYLNGHQDHFTMVGGQESARSMLHLAELFRLADQAGLLANPELATRRMTTVLASHGIESEGHHHHHH | not soluble
GPGSMPNPLVRLGKELKEATEHPDPDIHLELYDPTKGSDGSRSSQGAALQPSQQQPGLYTWLAILKGPPDTPFAGGSYRLVLSIPHEYPLVPPKAAFITKVFHPNVEFNTGNVCLDILKKRWSPVWTLSSVCRAILNLLAEPESDSPFNCDAGNLLRAGDMEGYASLVRYYAITDAGAPPFADNEE | not soluble
MSLSVLNAKECVSPITRSVKYHQQSAEIRALQLQSYKMAKMALDNNLKLVKDKKPAVILDLDETVLNTFDYAGYLIKNCIKYTPETWDKFEKEGSLTLIPGALDFLEYANSKGVKIFYISNRTQKNKAFTLKTLKSFKLPQVSEESVLLKEKGKPKAVRRELVAKDYAIVLQVGDTLHDFDAIFAKDAKNSQEQRAKVLQNAQKFGTEWIILPNSLYGTWEDEPIKAWQNKKEGHHHHHH | soluble
MAAWKSWTALRLCATVVVLDMVVCKGFVEDLDESFKENRNDDIWLVDFYAPWCGHCKKLESIWNEVGLEMKSIGSPVKVGKMDATSYSSIASEFGVRGYPTIKLLKGDLAYNYRGPRTKDDIIEFAHRVSGALIRPLPSQQMFEHMQKRHRVFFVYVGGESPLKEKYIDAASELIVYTYFFSASEEVVPEVIFKI | soluble
SLERSVNGKIQKADIFSVPVSFNANEVTHVDTPQEALAASLNKFGEVNLEYMENLSETGRQELLTQLENRIFYNPMMKNYEIKDRFIAGNVVAKVEWIENYLKDYPDDDASKKSLEALQKAIPEPISFELLDFNLGERWIPVSVYEEFAGYLFEAKAHIHYTESIDEFSVSFEETNANITDRYYVKGEKRGYYGNDLLKHALHNTVPDITKTVQDEEGNDIKVRDAEAIQLADAKINEIRSAFTGWLNEQLPEFKQHLADMYNRKFNCYVRPDYDGSLQSFPFLDLKGLGIPSLYDSQ | not soluble
LFNYKPGTSVFSIATAGCNFKCKHCQNWEISQSLPEEVPFSELTPEDVVELAKNYLCEGIAYTYTEPTIFYEFMQETAKLAKKHDLFNVMVTNGYIEKEPLKKLEIDAMNIDIKGNSEFYKKICLAELEPVLETCRLAKKLGIHIEITNLVVPTYNDNPKYIESIINFVKDELGVDTPLHFTAFYPHYKLTSVPSTRMETIKKARDMALNAGLHYVYAGNV | not soluble
MAIEIPNMIQIGSTGRNSGKTTLAEALIKQYQEVYPIYGLKIITISGQRGVCQRGTKGCGICTSITAGYELVEEQETIGNKDTMKLLAAGCQKVFLLKVFQENLAEAIQQFLKAVPAQALIICESNSLRNVVQPGLFLMMNNQNRQKESAKKVIDKADFCLLSAEIPKKLRIYYQGEQLQVSLKRGNKKECVH | not soluble
MGMACLTMTEMEATSTSPVHQNGDIPGSANSVKQIEPVLQVYLYHSLGQAEGEYLKFPSGEYVAEEICVAASKACGITPVYHNMFALMSETERIWYPPNHVFHIDESTRHDILYRIRFYFPHWYCSGSSRTYRYGVSRGAEAPLLDDFVMSYLFAQWRHDFVHGWIKVPVTHETQEECLGMAVLDMMRIAKEKDQTPLAVYNSVSYKTFLPKCVRAKIQDYHILTRKRIRYRFRRFIQQFSQCKATARNLKLKYLINLETLQSAFYTEQFEVKESARGPSGEEIFATIIITGNGGIQWSRGKHKESETLTEQDVQLYCDFPDIIDVSIKQANQECSNESRIVTVHKQDGKVLEIELSSLKEALSFVSLIDGYYRLTADAHHYLCKEVAPPAVLENIHSNCHGPISMDFAISKLKKAGNQTGLYVLRCSPKDFNKYFLTFAVERENVIEYKHCLITKNENGEYNLSGTKRNFSNLKDLLNCYQMETVRSDSIIFQFTKCCPPKPKDKSNLLVFRTNGISDVQISPTLQRHNNVNQMVFHKIRNEDL | not soluble
MGHHHHHHSHMEYSCGTAAIRGTKELGEGQHFWEIKMTSPVYGTLTFFKNRKCIGVAATKLQNKRFYPMVCSTAARSSMKVTRSCASATSLQYLCCHRLRQLRPDSGDTLEGLPLPPGLKQVLHNKLGWVLSMSCSRRKAPVSDPQAATSAHPSSREPRPCQRKRCRRT | not soluble
MDNKLDVFRRELVDVEGIPLFWSIAEHWSQVESFEARPDDILISTYPKSGTTWVSEILDLIYNNGDAEKCKRDAIYKRVPFMELIIPGITNGVEMLNNMPSPRIVKTHLPVQLLPSSFWKNDCKIIYVARNAKDVVVSYYYFYQMAKIHPEPGTWEEFLEKFMAGQVSFGPWYDHVKSWWEKRKEYRILYLFYEDMKENPKCEIQKILKFLEKDIPEEILNKILYHSSFSVMKENPSANYTTMMKEEMDHSVSPFMRKGISGDWKNQFTVAQYEKFEEDYVKKMEDSTLKFRSEI | soluble
MSPAPVQVMGVLNVTDDSFSDGGCYLDLDDAVKHGLAMAAAGAGIVDVGGESSRPGATRVDPAVETSRVIPVVKELAAQGITVSIDTMRADVARAALQNGAQMVNDVSGGRADPAMGPLLAEADVPWVLMHWRAVSADTPHVPVRYGNVVAEVRADLLASVADAVAAGVDPARLVLDPGLGFAKTAQHNWAILHALPELVATGIPVLVGASRKRFLGALLAGPDGVMRPTDGRDTATAVISALAALHGAWGVRVHDVRASVDAIKVVEAWMGAERIERDG | soluble
MGSDKIHHHHHHMRGMMLGMLAETHIHSGAGRSEGFVDLPVAREAVTSYPVIAGSSLKGALRDAARERGMDESIFGDQDRAGDVLVSDARLLLLPVRSLTGSYRWVTCPHILERLSRDMRLCGISDGFEGASVERGKACCTDDLNQIFLEEREFQRSNGIDGALIDALKKMVPHKQTASRLERQLVIISDDDFGWFASYGLPVIARNKLDDNKKSKNLWYEEALAPDTLMYAMVFERKDGALGKVQSMFETKPYLQLGGNETVGMGWFAVKILEQGEGR | not soluble
MSLGEKASKVLITSVPKCGTHLLKQVVLGAPFYKRGKWISLRESIREQIDNCHDQTIMVGHLEYSEEIVRYLNEKGIRRLFIYRDPRDMLISYVFYVKEIAPKHELRNYFLHVLGSDEERIMKLITGFHYQEENLTYGDLTLHYQPFLPWIEDKGTLALRFEDLVSSNECKEQTISKIADYLWHGSTFDQYNKAVLKKRMLENIRPSHSGTFRKGVSGDWKNYFTAQHKSVFKEVAGQLLIDLGYEKDMDEGHHHHHH | soluble
MSLSEDKMDLYLQQGMYGPLETKPDERHLFLGSLRERVVLALTKGQVLRSKPYKEAEHELKNSHNVTLLINGELQYQSYSSYIQMASRYGVPFKIVSDLQFHTPLGIVIAADIAVNRELIYIQDDIYNRSVLKSEGHHHHHH | soluble
MKHLNFILAGLFFLCGLCCRAQVLPLEENVVLNTKEGQIKGKLLLPGGVKTCPVVLIIAGSGPTDMDGNSAIGNLRNNSLKFLAEGLAANGIASLRFDKRGIGTSASAGKEEAKLRFEDYVNDVTGWIDYLAKEKRFTTITVAGHSEGALIGMLACQNRPKVKGYISVAGAGRPAYEIIEAQVAAQQNPEAVRKEVASINGSLKNGKEVSDVPAYLQSLYRASVQPYLISWFKYNPRTVIASVKVPVLIVQGKNDIQVSVEDAELLKKGCPAAELLLIDKMNHVLKDCESKAVQQQMLTYGNPSLPVNSTLIASVSTFVKKLK | not soluble
